System: Bacillus subtilis
Assay: cleaved RNA product abundance (RNA/gDNA barcode ratio) relative to median wild-type variant (ratio to wild type); higher = more accumulation of the downstream cleavage product
Settings: cleavage site: cggR-gapA (positions -7 to +36 mutated)
Procedure: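 MPRA in B. subtilis. Mutagenized RNase Y cleavage-site regions (9% mutation rate) were inserted into a barcoded reporter mRNA (truncated aprE or tetM). Cells were grown in LB at 37°C to OD600 0.3. The cleaved RNA isoform was gel-purified and its barcodes counted; the RNA:gDNA barcode ratio was normalised to the median wild-type variant, and the median over barcodes is reported per variant. The printed sequence is the variable window only; the reporter flanks are not printed.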

[1] = experiment (reporter, strain, medium): exp 4a: truncated aprE reporter, strain BJT201 with 2% xylose (RNase J1 expressed)
[2] = experiment (reporter, strain, medium): exp 2b: truncated aprE reporter, strain BJT200

Sequence	cleaved RNA product abundance [1]	cleaved RNA product abundance [2]	cleaved RNA product abundance (experiment (reporter, strain, medium): exp 6: tetM reporter, strain 168)
ACAGACGAAGGAGCCGCAAAGAAGTAATTATGGGATGAATAATCCCTCAATATAAATATCTCTCACTTATTTAAA	0.169		
ACAGACGAAGGAGCCGCAAAGAAGTAATTCAGGGATGAATAATCCCTCAATATAAATATCTCTCACTTATTTAAA	0.325		
ACAGACGAAGGAGCCGCAAAGAAGTACTTAAGGGATGAATAATCCCTCAATATAAATATCTCTCACTTATTTAAA	0.243		
ACAGACGAAGGAGCCGCAAAGAAGTATTTAAGGGATGAATAATCCCTCAATATAAATATCTCTCACTTATTTAAA	0.288	0.275	
ACAGACGAAGGAGCCGCAAAGAAGTCAATAAGGGATGAATAATCCCTCAATATAAATATCTCTCACTTATTTAAA	0.284		
ACAGACGAAGGAGCCGCAAAGAAGTCATAAAGGGATGAATAATCCCTCAATATAAATATCTCTCACTTATTTAAA	0.198		
ACAGACGAAGGAGCCGCAAAGAAGTCATGAAGGGATGAATAATCCCTCAATATAAATATCTCTCACTTATTTAAA	0.325		
ACAGACGAAGGAGCCGCAAAGAAGTCATTAAAGGATGAATAATCCCTCAATATAAATATCTCTCACTTATTTAAA	0.158		
ACAGACGAAGGAGCCGCAAAGAAGTCATTAACGGATGAATAATCCCTCAATATAAATATCTCTCACTTATTTAAA	0.128		
ACAGACGAAGGAGCCGCAAAGAAGTCATTAAGAGATGAATAATCCCTCAATATAAATATCTCTCACTTATTTAAA	0.137	0.108	
ACAGACGAAGGAGCCGCAAAGAAGTCATTAAGCGATGAATAATCCCTCAATATAAATATCTCTCACTTATTTAAA	0.0665		
ACAGACGAAGGAGCCGCAAAGAAGTCATTAAGGAATGAATAATCCCTCAATATAAATATCTCTCACTTATTTAAA	0.139	0.0849	
ACAGACGAAGGAGCCGCAAAGAAGTCATTAAGGCATGAATAATCCCTCAATATAAATATCTCTCACTTATTTAAA	0.102		
ACAGACGAAGGAGCCGCAAAGAAGTCATTAAGGGACGAATAATCCCTCAATATAAATATCTCTCACTTATTTAAA	0.154		
ACAGACGAAGGAGCCGCAAAGAAGTCATTAAGGGATAAATAATCCCTCAATATAAATATCTCTCACTTATTTAAA	0.308	0.195	
ACAGACGAAGGAGCCGCAAAGAAGTCATTAAGGGATGAAAAATCCCTCAATATAAATATCTCTCACTTATTTAAA	0.2	0.173	
ACAGACGAAGGAGCCGCAAAGAAGTCATTAAGGGATGAATAAACCCTCAATATAAATATCTCTCACTTATTTAAA	0.176		
ACAGACGAAGGAGCCGCAAAGAAGTCATTAAGGGATGAATAATCCCACAATATAAATATCTCTCACTTATTTAAA	0.2	0.142	
ACAGACGAAGGAGCCGCAAAGAAGTCATTAAGGGATGAATAATCCCCCAATATAAATATCTCTCACTTATTTAAA	0.113		
ACAGACGAAGGAGCCGCAAAGAAGTCATTAAGGGATGAATAATCCCTCAAAATAAATATCTCTCACTTATTTAAA	0.203		
ACAGACGAAGGAGCCGCAAAGAAGTCATTAAGGGATGAATAATCCCTCAATATAAACATCTCTCACTTATTTAAA	0.333		
ACAGACGAAGGAGCCGCAAAGAAGTCATTAAGGGATGAATAATCCCTCAATATAAATAACTCTCACTTATTTAAA	0.249		
ACAGACGAAGGAGCCGCAAAGAAGTCATTAAGGGATGAATAATCCCTCAATATAAATATCTCTCACTTATTTAAA	0.255	0.186	0.244
ACAGACGAAGGAGCCGCAAAGAAGTCATTAAGGGATGAATAATCCCTGAATATAAATATCTCTCACTTATTTAAA	0.136		
ACAGACGAAGGAGCCGCAAAGAAGTCATTAAGGGATGAATAATCCGTCAATATAAATATCTCTCACTTATTTAAA	0.173	0.124	

Source: the supplement of paper PMC11780869
